From patent publication US11994512B2, “Single-cell genomic methods to generate ex vivo cell systems that recapitulate in vivo biology with improved fidelity” (Massachusetts Institute of Technology, priority 2018, dated 2024)

B1: O35280 (protein, UniProt O35280 1-476, looked up)
chain: MAVPFVEDWDLVQTLGEGAYGEVQLAVNRITEEAVAVKIVDMKRAIDCPENIKKEICINKMLSHENVVKFYGHRREGHIQYLFLEYCSGGELFDRIEPDIGMPEQDAQRFFHQLMAGVVYLHGIGITHRDIKPENLLLDERDNLKISDFGLATVFRHNNRERLLNKMCGTLPYVAPELLKRKEFHAEPVDVWSCGIVLTAMLAGELPWDQPSDSCQEYSDWKEKKTYLNPWKKIDSAPLALLHKILVETPSARITIPDIKKDRWYNKPLNRGAKRPRATSGGMSESSSGFSKHIHSNLDFSPVNNGSSEETVKFSSSQPEPRTGLSLWDTGPSNVDKLVQGISFSQPTCPEHMLVNSQLLGTPGSSQNPWQRLVKRMTRFFTKLDADKSYQCLKETFEKLGYQWKKSCMNQVTVSTTDRRNNKLIFKINLVEMDEKILVDFRLSKGDGLEFKRHFLKIKGKLSDVVSSQKVWFPVT
modifications: full-length
B2: E9Q5C9 (protein, UniProt E9Q5C9 1-702, looked up)
chain: MADTGLRRVVPSDLYPLVLRFLRDSQLSEVASKFAKATGATQQDANASSLLDIYSFWLNRSTKAPKVKLQSNGPVTKKAKKETSSSDSSEDSSEDEDKKAQGLPTQKAAAQVKRASVPQHAGKAAAKASESSSSEESSEEEEEDKKKKPVQQKAAKPQAKAVRPPAKKAESSESDSDSDSDSSSEEETPQTQKPKAAVAAKAQTKAEAKPGTPAKAQPKVANGKAAASSSSSSSSDDSEEEKKAAAPPKKTVPKKQVVAKAPVKVAAAPTQKSSSSEDSSSEEEEGQRQPMKKKAGPYSSVPPPSVPLPKKSPGTQAPKKAAAQTQPADSSDDSSDDSDSSSEEEKKPPAKTVVSKTPAKAAPVKKKAESSSDSSDSDSSEDEAPAKPVSTTKSPKPAVTPKPSAAKAVTTPKQPAGSNQKPQSRKADSSSSEEESSSSEEEEASKKSATTPKAKVTAKAAPAKQAPQAAGDSSSDSDSSSSEEEEKTPKPPAKKKAAGGAVSTPAPGKKAEAKSSSSSSSSSSEDSSEEEKKKKPKATTPKIQASKANGTPASLNGKAAKESEEEEEEEETEEKKKAAGTKPGSGKKRKQNETADEATTPQAKKVKLETPNTFPKRKKGERRASSPFRRVREEEIEVDSRVADNSFDAKRGAAGDWGERANQVLKFTKGKSFRHEKTKKKRGSYRGGSISVQVNSVKFDSE
modifications: full-length
B3: O09037 (protein, UniProt O09037 1-175, looked up)
chain: MLPHLVLNSISWMLLSCLLFVFQVQGEDFQKEVPSPRTSCPMGYKAYRSHCYALVMTPKSWFQADLVCQKRPSGHLVSILSGGEASFVSSLVNGRVDNYQDIWIGLHDPTMGQQPNGGGWEWSNSDVLNYLNWDGDPSSTVNRGHCGSLTASSGFLKWGDYYCDGTLPFVCKFKQ
modifications: full-length
B4: O09010 (protein, UniProt O09010 1-378, looked up)
chain: MLQRCGRRLLLALVGALLACLLVLTADPPPTPMPAERGRRALRSLAGSSGGAPASGSRAAVDPGVLTREVHSLSEYFSLLTRARRDADPPPGVASRQGDGHPRPPAEVLSPRDVFIAVKTTRKFHRARLDLLFETWISRHKEMTFIFTDGEDEALAKLTGNVVLTNCSSAHSRQALSCKMAVEYDRFIESGKKWFCHVDDDNYVNLRALLRLLASYPHTQDVYIGKPSLDRPIQATERISEHKVRPVHFWFATGGAGFCISRGLALKMGPWASGGHFMSTAERIRLPDDCTIGYIVEALLGVPLIRSGLFHSHLENLQQVPTTELHEQVTLSYGMFENKRNAVHIKGPFSVEADPSRFRSVHCHLYPDTPWCPRSAIF
modifications: full-length
B5: O08529 (protein, UniProt O08529 1-700, looked up)
chain: MAGIAIKLAKDREAAEGLGSHERAIKYLNQDYETLRNECLEAGALFQDPSFPALPSSLGYKELGPYSSKTRGIEWKRPTEICADPQFIIGGATRTDICQGALGDCWLLAAIASLTLNEEILARVVPPDQSFQENYAGIFHFQFWQYGEWVEVVVDDRLPTKDGELLFVHSAEGSEFWSALLEKAYAKINGCYEALSGGATTEGFEDFTGGIAEWYELRKPPPNLFKIIQKALEKGSLLGCSIDITSAADSEAVTYQKLVKGHAYSVTGAEEVESSGSLQKLIRIRNPWGQVEWTGKWNDNCPSWNTVDPEVRANLTERQEDGEFWMSFSDFLRHYSRLEICNLTPDTLTCDSYKKWKLTKMDGNWRRGSTAGGCRNYPNTFWMNPQYLIKLEEEDEDEEDGERGCTFLVGLIQKHRRRQRKMGEDMHTIGFGIYEVPEELTGQTNIHLGKNFFLTTRARERSDTFINLREVLNRFKLPPGEYVLVPSTFEPHKDGDFCIRVFSEKKADYQAVDDEIEANIEEIDANEEDIDDGFRRLFVQLAGEDAEISAFELQTILRRVLAKRQDIKSDGFSIETCKIMVDMLDEDGSGKLGLKEFYILWTKIQKYQKIYREIDVDRSGTMNSYEMRKALEEAGFKLPCQLHQVIVARFADDELIIDFDNFVRCLVRLETLFKIFKQLDPENTGTIQLNLASWLSFSVL
modifications: full-length
B6: D3YUE4 (protein, UniProt D3YUE4 1-279, looked up)
chain: MAACAGGPGSWSENILKYFLRNNQITAEDGAEILWSHAANHKSQMNEALKSAAHMIEADVLLPSDGSEHGQPIMAHPPETSSDNTLQEWLAEVVKSNKGIKLDFKSLAAVRASMLFLDNMKQHLQRPVWINADILPGPNGSSKVVDAKAFLDTVTSFFPDVTFSLGWTTGWHPEKVNEGYSWSMVKEMDYICSELTQPVTFPVRAALVRQSCPQLLWLLTKSNRYSLTVWTGKDDIYSTEDLLYIRDYFNKTQVFYDISEPQNHEFKQAIGIRGHSLRI
modifications: full-length
B7: B9EJ86 (protein, UniProt B9EJ86 1-889, looked up)
chain: MEAALADGEPDRSSLLGDSKDVLGPSTVVANSDEPQHLTPGKMSQRQGRDANPTPTRDLPQPSLSPASLHSQGFERGKEDISQNKDDSSLSMSKSKSESKLYNGSEKDSSTSSKLTKKESLKVQKKNYREEKKRATKELLSTITDPSVIVMADWLKIRGTLKSWTKLWCVLKPGVLLIYKTQKNGQWVGTVLLNACEIIERPSKKDGFCFKLFHPLEQSIWAVKGPKGEAVGSITQPLPSSYLIIRATSESDGRCWMDALELALKCSSLLKRTMVREGKEHDLSISSDSTHVTLYGLLRANNLHSGDNFQLNDSEIERQHFKDQDLYSDKSDKENDPEHDESDNEVLGKSEESDTDTSERQDDSYIDPEPVEPLKETTYMEQSHEELGEAGEASQTETVSEENKSLIWTLLKQVRPGMDLSRVVLPTFILEPRSFLDKLSDYYYHADFLSEAALEENPYFRLKKVVKWYLSGFYKKPKGLKKPYNPILGETFRCLWIHPRTNSKTFYIAEQVSHHPPISAFYVSNRKDGFCLSGSILAKSKFYGNSLSAILEGEARLTFLNRGEDYVMTMPYAHCKGILYGTMTLELGGTVNITCQKTGYSAILEFKLKPFLGSSDYVNQISGKLKLGKEVLATLEGHWDSEVFINDKKTDNSEIFWNPTPDIKQWRLIRHTVKFEEQDDFESEKLWQRVTKAINAKDQTEATQEKYVLEEAQRQAARDRKTKTQEWVCKLFELDPLTGEWHYKFSDTRPWDPLNDMIQFEKDGVIQTKVKHRTPMVSVPKMKHKPTRQQKKVVKGYSSPEPDIQDSSGSEAQSVKPSTRRKKGIDLGDIQSSIESIKQTQEEIKRNIMALRNHLLSSTPATDYFLQQKDYFVIFLLILLQVIINFIFK
modifications: full-length

system: intracellular proteome of ENR+CD and ENR organoids; assay: LC-MS/MS TMT proteomics of ENR+CD versus ENR organoids; assay type: cell-based, C57BL/6 mice; conditions: protein abundance, ENR+CD versus ENR organoids; aggregate of the four sample pairs
Source text: Because PCs are highly secretory, protein-rich cells, Applicants sought to assess the total intracellular proteome between conditions through liquid chromatography mass spectrometry (LC-MS/MS)-based proteomics. Applicants quantified relative protein abundance across eight samples using isobaric mass tag labeling from four ENR and four ENR+CD samples (M1-1 through M2-2, first digit denotes biological donor, second digit denotes technical replicate) (FIG. 3A). Samples were processed and analyzed in a single 10-plex by LC-MS/MS (FIG. 9A).
To affirm the reproducibility of the associated proteins in the ENR+CD-enriched proteome, Applicants performed relative quantification within differentiation sets.
Mass spectrometry proteomics sample preparation, sequencing, and quantification. Organoid cell pellets were isolated from Matrigel with mechanical dissociation and washed (cold PBS 5X) to remove residual extracellular protein. Proteins were extracted from cell pellets with 8 M urea (Sigma), reduced with 5 mM DTT (Thermo Fisher Pierce) for 45 minutes, alkylated with 10 mM IAA (Sigma) for 45 minutes in the dark, and double digested with both Lysyl Endopeptidase “LysC” (Wako) and trypsin (Promega) overnight at RT. A small aliquot of cellular lysate was removed from each sample for protein quantification via the Pierce™ BCA Protein Assay Kit (Pierce). After proteolytic digestion, the samples were quenched using formic acid to a final concentration of 1.0% and subsequently desalted on 10 mg OASIS HLB solid phase columns (Waters).
The peptides were labeled with TMT-10 isobaric mass tag reagent according to manufacturer's instructions (ThermoFisher Scientific). The peptides were labeled at a 1:8 ratio of peptide to TMT reagent, followed by 1-hour incubation at RT with bench top shaking at 850 rpm. After incubation, a […] of labeled tryptic peptide was removed from each labeled condition, desalted with C18 stage tips, and analyzed via LC-MS/MS using a Thermo Fisher Q Exactive Plus Hybrid Mass Spectrometer (QE-Plus) coupled to a Thermo Fisher EASY-nLC 1000 liquid chromatograph to ensure isobaric label incorporation >95%. An additional 1.0 μg of labeled tryptic peptide was removed from each channel, mixed together, desalted on a C18 stage tip, and analyzed via LC-MS to ensure equal relative protein loads. During these quality control steps, the labeled peptides were stored, unquenched at −80° C.

First: B1
Second: B2
The “Average logFC” value of the first is higher: −1.266 for the first, −1.884 for the second.

Compared with B3, B4 is higher in “Average logFC” value: −1.611 for the first, 1.464 for the second.

Going from B5 to B6, the “Average logFC” value falls from 1.309 to −1.165.

B7 was tested, and the “Average logFC” value was 1.24.

same assay, conditions: protein abundance, ENR+CD versus ENR organoids; replicate M1-1; log2 ratio

First: B1
Second: B2
The “M1-1 Log2 Median Normalized” value of the first is higher: −1.09 for the first, −1.968 for the second.

Going from B3 to B4, the “M1-1 Log2 Median Normalized” value rises from −1.64 to 1.443.

Compared with B5, B6 is lower in “M1-1 Log2 Median Normalized” value: 1.421 for the first, −0.678 for the second.

In the case of B7, the “M1-1 Log2 Median Normalized” value is reported as 1.242.

same assay, conditions: protein abundance, ENR+CD versus ENR organoids; replicate M1-2; log2 ratio

Compared with B1, B2 is lower in “M1-2 Log2 Median Normalized” value: −1.001 for the first, −1.821 for the second.

Going from B3 to B4, the “M1-2 Log2 Median Normalized” value rises from −2.141 to 1.37.

First: B5
Second: B6
The “M1-2 Log2 Median Normalized” value of the first is higher: 1.297 for the first, −1.053 for the second.

B7 was tested, and the “M1-2 Log2 Median Normalized” value was 1.864.

same assay, conditions: protein abundance, ENR+CD versus ENR organoids; replicate M2-1; log2 ratio

B1 and B2 are within 0.2 log units of each other in “M2-1 Log2 Median Normalized” value: −1.4995 for the first, −1.5075 for the second.

Going from B3 to B4, the “M2-1 Log2 Median Normalized” value rises from −1.5875 to 1.4835.

Going from B5 to B6, the “M2-1 Log2 Median Normalized” value falls from 1.1725 to −1.3175.

With B7 the “M2-1 Log2 Median Normalized” value was 1.0905.

same assay, conditions: protein abundance, ENR+CD versus ENR organoids; replicate M2-2; log2 ratio

Going from B1 to B2, the “M2-2 Log2 Median Normalized” value falls from −1.475 to −2.239.

First: B3
Second: B4
The “M2-2 Log2 Median Normalized” value of the first is lower: −1.077 for the first, 1.56 for the second.

Compared with B5, B6 is lower in “M2-2 Log2 Median Normalized” value: 1.347 for the first, −1.611 for the second.

In the case of B7, the “M2-2 Log2 Median Normalized” value is reported as 0.802.

same assay, conditions: up = enriched in ENR+CD, down = enriched in ENR; FDR<0.05 and log fold change cut-off

In the case of B1, the change is reported as “down”.
For B2, the change was “down”.
B3 was tested, and the change was “down”.
In the case of B4, the change is reported as “up”.
With B5 the change was “up”.
B6 was tested, and the change was “down”.
In the case of B7, the change is reported as “up”.
